The record followed here is US5707800, “Retinoic acid response elements and assays employing same” (The Salk Institute for Biological Studies).

One series concerns RAR (subtype not stated). Description: cell_activity. Conditions: CV-1 cells; RAR blocks RXR transactivation at equal expression vector amount; no RA activation by RAR itself.
Series [1] concerns the target RXR alpha (retinoid X receptor alpha) (Homo sapiens, UniProt P19793 P19793:1-462). Description: cell_activity; CAT induction by retinoic acid in F9 cells, CRBPII promoter reporter pCRBPII-CAT. Conditions: tags: expression plasmid; chain copies: 4; label: 32P. On the procedure: Chem. 262:2425–2467 (1987)], was introduced into a plasmid which would regulate expression of the reporter, bacterial chloramphenicol acetyl transferase (see FIG. 1). The resultant reporter plasmid, pCRBPII-CAT, was tested for retinoic acid (RA) responsiveness after transfection into mouse embryonal teratocarcinoma F9 cells. F9 cells endogenously express high amounts of retinoic acid receptor (RAR), and can efficiently transactivate (>100-fold) a reporter plasmid containing the well characterized RA-inducible promoter of the RARβ gene [see de The et al., in Nature 343:177–180 (1990) and Sucov, et al., in Proc. Natl. Acad. Sci. U.S.A. 87:5392–5396 (1990)]. However, pCRBPII-CAT conferred no basal or RA-inducible CAT activity in these cells. To eliminate the possibility that regulation of the CRBPII promoter requires an augmented concentration of RAR, as is the case for the laminin retinoic acid response element [RARE; see Vasias, et al., in Proc. Natl Acad. Sci. U.S.A. 86:9099–9103 (1989], or that its regulation is isoform specific, expression vectors bearing all three subtypes of RAR were each separately cotransfected with pCRBPII-CAT into F9 cells.
To assess the exact sequences within the CRBPII promoter that function as an RXR response element (RXRE), a series of 5'-deletion mutants were constructed starting with the parent reporter plasmid pCRBPII-CAT (see FIG. 2). […]

Sequence of RXR alpha (retinoid X receptor alpha) (P19793 whole entry, one chain of several): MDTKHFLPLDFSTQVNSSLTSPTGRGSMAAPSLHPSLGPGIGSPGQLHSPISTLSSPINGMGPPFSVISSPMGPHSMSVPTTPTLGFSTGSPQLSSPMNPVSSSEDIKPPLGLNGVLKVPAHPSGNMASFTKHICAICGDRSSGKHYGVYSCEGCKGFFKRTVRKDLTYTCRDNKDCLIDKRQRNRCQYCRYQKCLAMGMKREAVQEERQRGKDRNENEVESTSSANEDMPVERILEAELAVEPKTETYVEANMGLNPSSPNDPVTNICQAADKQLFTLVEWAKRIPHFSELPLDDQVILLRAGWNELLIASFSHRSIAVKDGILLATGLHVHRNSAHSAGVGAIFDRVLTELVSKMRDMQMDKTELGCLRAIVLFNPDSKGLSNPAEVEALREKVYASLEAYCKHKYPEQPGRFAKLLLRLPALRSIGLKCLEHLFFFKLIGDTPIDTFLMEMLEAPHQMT

As to “GCTGTCACAGGTCACAGGTCACAGGTCACAGTTCA (double strand) [CRBPII-RXRE]”, the activity (% suppression of RXR activation) with RAR (subtype not stated) was found to be 90.

B1: CRBPII-RXRE (dsDNA)
DNA 1: GCTGTCACAGGTCACAGGTCACAGGTCACAGTTCA
DNA 2: TGAACTGTGACCTGTGACCTGTGACCTGTGACAGC
In turn, B1 yielded an activity in series [1] of 100 fold.
